167 variants from the RNAGym collection of RNA variant scans (doi:10.7554/elife.80360) can be followed below.

B1: Hairpin Ribozyme (parent)
chain: GUCCUCUUUCACGUGCGCGUGAAAGAGAGAAGUGAACCAGAGAAACACACGUUGUGGUAUAUUACCUGGUA

The data set covers variants of B1. In words: self-cleavage, relative activity (ratio to wild type); higher = more cleavage; co-transcriptional.
In the case of U60A U70C, the self-cleavage came out at 0.626.

For U60A U70A, the self-cleavage was 0.61.

Consider A59C A64U, for which the self-cleavage was determined as 0.0804.

Regarding G56U, the self-cleavage is 0.157.

U58C U67C: the self-cleavage was determined as 0.205.

Turning to U62C A64G, the self-cleavage came out at 0.18.

For G57A G68C, the self-cleavage worked out at 0.207.

In the case of G57A G68U, the self-cleavage was 0.169.

As to U62G G69C, the self-cleavage was 0.217.

As for U62G G69U, the self-cleavage worked out at 0.165.

For the variant U62G G69A, the self-cleavage stood at 0.0955.

Consider A64U C65U, for which the self-cleavage was 0.194.

Regarding A64U C65A, the self-cleavage was 0.187.

As to C66G U67A, the self-cleavage turned out to be 0.17.

Consider U60G G68A, for which the self-cleavage was 0.201.

Consider U60G A61G, for which the self-cleavage stood at 0.205.

Consider A59G U62G, for which the self-cleavage came out at 0.167.

On to A59U A61U, for which the self-cleavage stood at 0.168.

Regarding A59U A61C, the self-cleavage was found to be 0.0374.

As for U63G G68U, the self-cleavage was found to be 0.225.

For U63G G68A, the self-cleavage is 0.281.

In the case of U58A U67G, the self-cleavage stood at 0.135.

Regarding G57C U70G, the self-cleavage worked out at 0.119.

Consider U63A C66U, for which the self-cleavage was determined as 0.258.

Consider G57A U60G, for which the self-cleavage came to 0.21.

In the case of A61G U70A, the self-cleavage is 0.154.

U60C A64G: the self-cleavage amounted to 0.614.

On to A64U C66U, for which the self-cleavage was 0.11.

As to U58G G69U, the self-cleavage worked out at 0.113.

For G56U A64C, the self-cleavage was determined as 0.177.

On to A61G U67G, for which the self-cleavage came to 0.157.

As for A61G U67C, the self-cleavage was 0.113.

For the variant A64U G68U, the self-cleavage is 0.23.

For U58G U70G, the self-cleavage amounted to 0.575.

Take U58G C66G: the self-cleavage was determined as 0.379.

A59G U67G: the self-cleavage came out at 0.153.

In the case of A59G U67A, the self-cleavage was determined as 0.311.

U58A C66G: the self-cleavage amounted to 0.165.

For the variant C65U A71G, the self-cleavage stood at 0.467.

Regarding C65U A71C, the self-cleavage was 0.774.

With G56U G57C, the self-cleavage worked out at 0.144.

For G56U G57A, the self-cleavage was found to be 0.222.

Turning to G56U G57U, the self-cleavage worked out at 0.204.

On to U60C C66G, for which the self-cleavage stood at 0.0763.

Regarding A59U U67C, the self-cleavage stood at 0.11.

For the variant C65G C66A, the self-cleavage was determined as 0.142.

Take U58A C65G: the self-cleavage was found to be 0.0985.

As for U58A U63A, the self-cleavage came to 0.14.

For the variant A59C A71U, the self-cleavage was determined as 0.156.

Take U63G G69U: the self-cleavage was 0.169.

Take U63G G69A: the self-cleavage was 0.102.

For the variant A64C G69A, the self-cleavage was 0.251.

A64C G69U: the self-cleavage was 0.234.

In the case of A59G A71G, the self-cleavage amounted to 0.0933.

As to A59G A71U, the self-cleavage turned out to be 0.106.

Turning to C65U C66G, the self-cleavage worked out at 0.248.

Regarding U60G U70C, the self-cleavage was 0.372.

As for U60G U70A, the self-cleavage was found to be 0.572.

As for A61U G68U, the self-cleavage turned out to be 0.153.

For U60C G69A, the self-cleavage came out at 0.51.

On to U63A C65U, for which the self-cleavage was 0.0803.

With A59U U60G, the self-cleavage came out at 0.172.

Turning to A59U U60C, the self-cleavage came to 0.257.

On to A61U U62A, for which the self-cleavage amounted to 0.139.

For the variant A64G U70C, the self-cleavage is 0.61.

In the case of A61G C66U, the self-cleavage came out at 0.277.

With A61U A64G, the self-cleavage came to 0.121.

As for A61U A64C, the self-cleavage worked out at 0.197.

Turning to U60C U63A, the self-cleavage is 0.262.

A64U A71C: the self-cleavage was found to be 0.494.

As to G57A C65A, the self-cleavage is 0.222.

In the case of G57A C65G, the self-cleavage was found to be 0.291.

For the variant U62G U70C, the self-cleavage was determined as 0.18.

Turning to U62G U70G, the self-cleavage came out at 0.352.

Turning to C65G G68U, the self-cleavage was found to be 0.102.

Regarding C65G G68A, the self-cleavage came out at 0.254.

Turning to A59C U67C, the self-cleavage was 0.123.

Turning to A59C U67A, the self-cleavage was determined as 0.241.

Consider U60C U70A, for which the self-cleavage turned out to be 1.29.

Take U58A A71G: the self-cleavage worked out at 0.768.

Regarding A59U A64G, the self-cleavage came out at 0.139.

Turning to A59U A64C, the self-cleavage came out at 0.149.

Regarding G57A U67C, the self-cleavage amounted to 0.123.

Take G57A U67G: the self-cleavage came out at 0.191.

Turning to A61C C66U, the self-cleavage was determined as 0.145.

A61C C66G: the self-cleavage came out at 0.101.

As for A61C C66A, the self-cleavage turned out to be 0.0988.

Consider G56U C66A, for which the self-cleavage came out at 0.208.

As to A61C A71C, the self-cleavage amounted to 0.285.

For the variant A61C A71U, the self-cleavage is 0.164.

For the variant G57C A71G, the self-cleavage turned out to be 0.201.

On to G57C A71U, for which the self-cleavage was 0.157.

In the case of G57C A71C, the self-cleavage was 0.356.

For the variant A59C U70G, the self-cleavage is 0.141.

As for A59C U70C, the self-cleavage was 0.151.

In the case of A61G A64G, the self-cleavage is 0.141.

Regarding C65U, the self-cleavage was found to be 0.323.

In the case of C65A, the self-cleavage amounted to 0.989.

For C65G, the self-cleavage was determined as 0.273.

Turning to C66G G69A, the self-cleavage worked out at 0.185.

As to A59G A64G, the self-cleavage came out at 0.176.

On to A59G A64C, for which the self-cleavage came to 0.273.

A59C U60C: the self-cleavage came out at 0.167.

With C65G U67A, the self-cleavage turned out to be 0.0982.

Take G57C C65G: the self-cleavage is 0.154.

On to A61C U62A, for which the self-cleavage came out at 0.143.

Take A61C U62G: the self-cleavage worked out at 0.102.

With G57C A64G, the self-cleavage is 0.126.

As for G57U A59U, the self-cleavage was determined as 0.411.

As for G57U A61C, the self-cleavage was determined as 0.0714.

On to A64C U70A, for which the self-cleavage came out at 0.4.

On to U60C A61U, for which the self-cleavage is 0.296.

Consider U58G C65U, for which the self-cleavage was 0.412.

On to U58G C65A, for which the self-cleavage was found to be 0.816.

Consider G57U A71G, for which the self-cleavage stood at 0.254.

For the variant A59U U70A, the self-cleavage came to 0.177.

Take C65A G68U: the self-cleavage came out at 0.292.

For C65A G68C, the self-cleavage was found to be 0.224.

With U60C G68C, the self-cleavage is 0.25.

With U62A C65G, the self-cleavage was 0.101.

On to G56U U58A, for which the self-cleavage was determined as 0.0912.

Turning to A61G G69C, the self-cleavage was determined as 0.156.

In the case of A61G G69U, the self-cleavage stood at 0.128.

For the variant C65U U70A, the self-cleavage was found to be 0.379.

As for U58C A71C, the self-cleavage stood at 1.21.

As to G56U A59G, the self-cleavage came to 0.238.

Consider G57C U62A, for which the self-cleavage came to 0.183.

For the variant G57C U62C, the self-cleavage came to 0.15.

On to G57A G69C, for which the self-cleavage is 0.141.

Turning to G57A G69U, the self-cleavage stood at 0.121.

U58A A59U: the self-cleavage is 0.183.

Regarding U58A A59C, the self-cleavage was found to be 0.252.

As to G57U C66G, the self-cleavage is 0.

U63A U67A: the self-cleavage is 0.208.

Turning to U63A U67G, the self-cleavage was 0.118.

As to U63A U67C, the self-cleavage amounted to 0.14.

As to A61G U62A, the self-cleavage was determined as 0.198.

For the variant A64U U67C, the self-cleavage was found to be 0.213.

In the case of A61U U63G, the self-cleavage amounted to 0.187.

As for A61U U63C, the self-cleavage was 0.0398.

For G57U G69A, the self-cleavage is 0.149.

Turning to U58G U62G, the self-cleavage is 0.304.

For A59C C66A, the self-cleavage was determined as 0.0564.

Consider U60A U67A, for which the self-cleavage amounted to 0.198.

Take G57U U60G: the self-cleavage was found to be 0.177.

Turning to G57C C66A, the self-cleavage is 0.15.

As to G57A U70A, the self-cleavage worked out at 0.134.

Take A59G C65U: the self-cleavage worked out at 0.18.

In the case of U63G C66G, the self-cleavage is 0.125.

As for U60C U67A, the self-cleavage came out at 0.324.

Turning to G56U A61U, the self-cleavage came out at 0.124.

As for A59U C65G, the self-cleavage was 0.218.

In the case of A64U G69U, the self-cleavage is 0.281.

Regarding U62A A71G, the self-cleavage came to 0.211.

As to U60G A71C, the self-cleavage was found to be 1.01.

With U60G A71G, the self-cleavage is 0.672.

In the case of A64U U70C, the self-cleavage stood at 0.0932.

Regarding A59G C66G, the self-cleavage was determined as 0.228.

Regarding C65A C66U, the self-cleavage worked out at 0.508.

Regarding U58G G68C, the self-cleavage stood at 0.178.

For U58G G68A, the self-cleavage turned out to be 0.208.

For the variant U62C C65G, the self-cleavage was 0.132.

In the case of U67A A71U, the self-cleavage was 0.194.

Turning to U67A A71G, the self-cleavage turned out to be 0.196.

For C66A A71G, the self-cleavage worked out at 0.196.

On to G57U U70C, for which the self-cleavage came out at 0.075.

With U62G G68A, the self-cleavage is 0.263.
